Test [1] has as its target human leucine-rich repeat kinase 2 (LRRK2), full-length, recombinant (human) (UniProt Q5S007). In words: cryo-EM structure.
For test [2], the target named is human leucine-rich repeat kinase 2 (LRRK2), full-length, recombinant (human, UniProt Q5S007 1-2527, R50H | S1647T | M2397T). The experiment in a line: cryo-EM structure.

Where “and” joins values, the source holds several entries; their conditions need not be identical. Equal values may be shown once.

Sequence of human leucine-rich repeat kinase 2 (LRRK2), full-length, recombinant (Q5S007 whole entry R50H/S1647T/M2397T): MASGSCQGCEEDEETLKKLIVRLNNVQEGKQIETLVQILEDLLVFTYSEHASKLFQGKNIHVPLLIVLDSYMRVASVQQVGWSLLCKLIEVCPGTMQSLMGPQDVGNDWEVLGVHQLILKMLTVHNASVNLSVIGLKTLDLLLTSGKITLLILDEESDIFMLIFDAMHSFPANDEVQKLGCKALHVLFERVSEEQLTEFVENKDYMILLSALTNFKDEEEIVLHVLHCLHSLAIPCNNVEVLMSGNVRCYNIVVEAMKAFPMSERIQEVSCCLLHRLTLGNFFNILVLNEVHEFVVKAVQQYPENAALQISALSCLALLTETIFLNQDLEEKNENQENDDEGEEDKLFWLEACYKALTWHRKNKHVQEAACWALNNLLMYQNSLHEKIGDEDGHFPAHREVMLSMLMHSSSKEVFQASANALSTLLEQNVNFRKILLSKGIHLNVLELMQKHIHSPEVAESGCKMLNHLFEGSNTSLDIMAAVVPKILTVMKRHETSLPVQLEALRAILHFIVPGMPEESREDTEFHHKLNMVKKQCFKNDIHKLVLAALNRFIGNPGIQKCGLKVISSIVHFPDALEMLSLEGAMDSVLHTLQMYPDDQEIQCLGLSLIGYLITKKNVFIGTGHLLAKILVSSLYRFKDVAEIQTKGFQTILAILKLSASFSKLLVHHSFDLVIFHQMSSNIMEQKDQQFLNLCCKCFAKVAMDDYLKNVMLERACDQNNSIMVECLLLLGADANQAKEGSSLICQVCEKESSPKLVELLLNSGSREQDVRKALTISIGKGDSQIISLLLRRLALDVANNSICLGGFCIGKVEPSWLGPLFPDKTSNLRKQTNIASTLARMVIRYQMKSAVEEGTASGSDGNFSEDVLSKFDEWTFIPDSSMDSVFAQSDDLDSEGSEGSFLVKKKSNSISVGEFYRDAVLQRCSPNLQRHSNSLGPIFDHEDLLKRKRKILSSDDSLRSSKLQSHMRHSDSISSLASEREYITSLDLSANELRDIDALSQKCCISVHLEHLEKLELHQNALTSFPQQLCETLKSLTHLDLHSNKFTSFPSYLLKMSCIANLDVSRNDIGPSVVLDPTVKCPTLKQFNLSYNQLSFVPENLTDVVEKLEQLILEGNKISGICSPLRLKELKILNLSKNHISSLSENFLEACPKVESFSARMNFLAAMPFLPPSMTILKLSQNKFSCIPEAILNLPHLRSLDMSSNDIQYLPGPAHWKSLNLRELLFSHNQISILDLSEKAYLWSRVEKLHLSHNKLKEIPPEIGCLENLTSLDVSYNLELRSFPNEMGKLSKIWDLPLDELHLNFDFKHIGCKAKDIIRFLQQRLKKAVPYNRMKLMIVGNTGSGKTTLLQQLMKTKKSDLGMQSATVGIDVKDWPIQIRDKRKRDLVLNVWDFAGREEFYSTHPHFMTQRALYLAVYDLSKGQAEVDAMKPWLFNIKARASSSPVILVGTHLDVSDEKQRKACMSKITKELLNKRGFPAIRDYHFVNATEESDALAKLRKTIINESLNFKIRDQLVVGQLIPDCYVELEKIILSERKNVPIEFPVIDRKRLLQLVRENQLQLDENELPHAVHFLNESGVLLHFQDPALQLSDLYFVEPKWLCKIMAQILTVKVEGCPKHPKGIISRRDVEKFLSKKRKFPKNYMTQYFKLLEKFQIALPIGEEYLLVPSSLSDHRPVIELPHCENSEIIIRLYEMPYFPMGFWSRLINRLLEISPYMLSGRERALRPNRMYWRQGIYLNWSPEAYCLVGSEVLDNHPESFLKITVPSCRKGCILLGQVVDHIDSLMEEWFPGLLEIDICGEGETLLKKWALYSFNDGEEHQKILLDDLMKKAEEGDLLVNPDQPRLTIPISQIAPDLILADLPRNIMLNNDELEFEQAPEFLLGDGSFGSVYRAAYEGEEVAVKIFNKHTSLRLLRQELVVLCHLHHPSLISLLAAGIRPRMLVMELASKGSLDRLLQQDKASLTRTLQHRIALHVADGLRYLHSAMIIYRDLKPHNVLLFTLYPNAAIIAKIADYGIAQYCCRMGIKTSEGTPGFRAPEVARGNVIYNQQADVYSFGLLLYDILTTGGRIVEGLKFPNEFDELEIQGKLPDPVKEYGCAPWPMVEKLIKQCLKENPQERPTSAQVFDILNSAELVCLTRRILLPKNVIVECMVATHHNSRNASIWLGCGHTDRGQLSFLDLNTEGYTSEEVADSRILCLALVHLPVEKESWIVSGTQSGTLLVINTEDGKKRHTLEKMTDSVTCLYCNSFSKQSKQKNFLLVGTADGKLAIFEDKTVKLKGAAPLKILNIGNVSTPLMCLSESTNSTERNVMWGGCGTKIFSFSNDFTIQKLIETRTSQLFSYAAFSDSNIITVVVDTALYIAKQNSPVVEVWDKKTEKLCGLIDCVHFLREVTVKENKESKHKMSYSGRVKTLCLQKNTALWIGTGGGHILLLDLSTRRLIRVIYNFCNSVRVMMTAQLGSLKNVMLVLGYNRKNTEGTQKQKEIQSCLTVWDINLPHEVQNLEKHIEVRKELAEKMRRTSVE

“human leucine-rich repeat kinase 2 (LRRK2), full-length, recombinant, Q5S007 1-2527”: the stoichiometry N (LRRK2 protomers) in test [1] is 2 and 4.

B1: Rab29 (residues 1-177) Q67L/T71A/S72A, GST tag removed (domain or fragment, human, UniProt O14966 1-177, looked up)
chain: MGSRDHLFKVLVVGDAAVGKTSLVQRYSQDSFSKHYKSTVGVDFALKVLQWSDYEIVRLQLWDIAGLERFAAMTRLYYRDASACVIMFDVTNATTFSNSQRWKQDLDSKLTLPNGEPVPCLLLANKCDLSPWAVSRDQIDRFSKENGFTGWTETSVKENKNINEAMRVLIEKMMRNS
In the case of B1, the “stoichiometry N” value in test [2] was determined as 1 Rab29 per LRRK2.

For the origin of these results see publication doi:10.1101/2022.04.26.489605 (bioRxiv, 2022).
